# Measurements from patent US20100098761A1, “Polymer Compositions For Biomedical And Material Applications” (University of Massachusetts Medical School, priority 2007, published 2010).
# B1: rmRANKL: recombinant receptor activator of nuclear factor κB ligand, E. coli expressed (protein, UniProt O35235 139-316, looked up)
# Tumor necrosis factor ligand …: FSGAPAMMEGSWLDVAQRGKPEAQPFAHLTINAASIPSGSHKVTLSSWYHDRGWAKISNMTLSNGKLRVNQDGFYYLYANICFRHHETSGSVPTDYLQLMVYVVKTSIKIPSSHNLMKGGSTKNWSGNSEFHFYSINVGGFFKLRAGEEISIQVSNPSLLDPDQDATYFGAFKVQDID
# Tested on: murine macrophage RAW264.7 cells
# Test: Osteoclastic differentiation of RAW264.7 cells (TRAP stain)
# Assay type: cell-based
# Procedure: Grafts (5×5×1 mm, FlexBone 25% HA-25% TCP) were pre-absorbed with varying amounts of growth factors and cytokines to provide an exogenous supply for remodeling. […] The preferred loading dose of RANKL (10 ng/FlexBone graft) was determined by the osteoclastic differentiation of macrophage RAW264.7, induced by the RANKL released from the graft as indicated by positive TRAP stains (purple) of multinucleated cells on Day 6. […] Finally, the preferred loading dose of rhVEGF165 in stimulating the proliferation of human vascular endothelial cells in culture was determined to be 5 ng/graft.
# Materials. The radical inhibitors in the commercial 2-hydroxyethyl methacrylate (HEMA, Aldrich) and ethylene glycol dimethacrylate (EGDMA, Aldrich) were removed via distillation under reduced pressure and by passing through a 4 Å molecular sieve column prior to use, respectively. […] In a typical procedure, 0-5.0 wt % TCH was dissolved in the mixture of freshly distilled monomer HEMA, 2% cross-linker EGDMA and viscous solvent ethylene glycol under bath-sonication, before 25 wt % HA, 25 wt % TCP, and the aqueous radical initiators ammonium persulfate and sodium metasulfite were added and thoroughly mixed (Table I). […] The compressive behavior of FlexBone in fully hydrated state as a function of TCH content was analyzed using a Q800 Dynamic Mechanical Analyzer (DMA, TA Instruments) equipped with a submersion compression fixture. […] An L-square was used to make sure that the sanded top and bottom surfaces were parallel prior to testing, and the final dimensions of each specimen were measured by a digital caliper. […] All stress-strain curves presented are based on the engineering stress and engineering strain recorded, assuming a fixed cross-section of the material defined at the start of the test. […] The release of TCH from FlexBone vs. pHEMA hydrogel in water as a function of time and the initial TCH incorporation was monitored over 1 week at 357.9 nm. […]
molecule,measurement,setting,value
B1,osteoclast differentiation,"continued supplement of 10-ng every other day, day six",formation of TRAP-positive multinucleated osteoclasts
same,preferred loading dose,"determined by osteoclastic differentiation of RAW264.7, TRAP stains Day 6",10 ng/FlexBone graft
same,osteoclast differentiation,single supplement of 10-ng directly to culture,not sufficient in inducing the osteoclast differentiation
